Measured values as given in patent publication US8034783B2, “Prodomain modulators of ADAM 10” (Biozyme, Inc., priority 2006, dated 2011).
Non-standard residues stand in square brackets, D forms with d. Primed or numbered codes have the meaning given here. *: point of attachment. Fluorescein = fluorescein label attached to the cysteine side chain; Dabcyl′ = CN(C)c1ccc(/N=N/c2ccc(C(=O)*)cc2)cc1; hPhe = N[C@@H](CCc1ccccc1)C(=O)O

What was measured:
ADAM 10 (human) Cat/Dis = target: T1, ADAM 10 (human) Cat/Dis (Homo sapiens, UniProt O14672); assay: Inhibition assay with ADAM10 catalytic/disintegrin construct, fluorescent substrate; format: biochemical
T1 construct: containing the catalytic/disintegrin domains; purchased R & D Systems (Minneapolis, Minn., USA)
T1 sequence (O14672 214-672 limits assumed): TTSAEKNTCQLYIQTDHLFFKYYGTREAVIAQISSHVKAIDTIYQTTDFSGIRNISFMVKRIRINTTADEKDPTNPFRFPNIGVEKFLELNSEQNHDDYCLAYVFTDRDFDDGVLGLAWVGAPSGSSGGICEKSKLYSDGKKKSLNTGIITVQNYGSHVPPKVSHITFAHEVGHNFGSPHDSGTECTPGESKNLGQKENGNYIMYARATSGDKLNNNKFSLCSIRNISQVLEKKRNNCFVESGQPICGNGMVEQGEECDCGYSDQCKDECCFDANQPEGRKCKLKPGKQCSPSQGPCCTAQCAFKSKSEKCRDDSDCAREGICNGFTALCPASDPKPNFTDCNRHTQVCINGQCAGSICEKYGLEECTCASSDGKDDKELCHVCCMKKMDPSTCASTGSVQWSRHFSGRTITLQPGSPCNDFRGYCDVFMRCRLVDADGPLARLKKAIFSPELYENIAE
Description: (§1) Inhibition assays with TACE and ADAM 10. Activity of TACE catalytic/disintegrin, TACE catalytic, or ADAM10 catalytic/disintegrin constructs was monitored at 3 minute intervals using the fluorescent substrate, Dabcyl-LAQAHomoPheRSC(Fluorescein)-NH2 (SEQ ID NO 17) with excitation 485 nm and emission 530 nm. The substrate was diluted from a 10 mM stock in DMSO to 10 μM in assay buffer containing 20 mM Tris, pH 8.0, and 0.0006% Brij-35. Reactions were run in a 96-well black-coated plate with either ADAM10 prodomain (10 nM-1.0 μM) alone or with enzyme. Concentrations of enzyme ranged from 0.5-2.0 nM for TACE and 5-15 nM for ADAM10. For assays with TACE and ADAM8 prodomain, the range of concentrations varied from 1-4.7 μM.
(§2) Calculation of inhibition constants. The amount of activity was calculated by subtracting the ADAM 10 prodomain control from the ADAM 10 prodomain with enzyme. All inhibition assays were performed at room temperature and the data fit to the following equation using Sigma Plot software:
(§3) [formula] where If is fractional inhibition, I is the inhibitor concentration and Ki is the inhibition constant.
Wild type ADAM 10 prodomain (23-213) was tested to determine the mode of inhibition of ADAM 10 protein. ADAM 10 protein was diluted 1:100 in buffer 25 mM Tris pH 8, 0.0006% Brij-35 and then 10 μl was added to 88 μl of substrate (20-100 μM), Dabcyl-LAQAHomoPheRSC(Fluorescein)-NH2 with excitation 485 nm and emission 530 nm. Prodomain, 2 μl, in 25 mM Tris, pH 8, 100 mM NaCl, 10% glycerol, 0.1% mercaptoethanol, and 50 μM CaCl2 was added to substrate before addition of enzyme. The final concentration of prodomain ranged from 17-170 nM. The fluorescence vs time was plotted, and slopes were taken from straight line fits of initial velocities. The reciprocal of the velocities was plotted vs the reciprocal of substrate squared since the normal Lineweaver Burke plot gave curved lines. The initial velocities vs substrate concentrations were fit as a family of curves to several allosteric models.

TACE (human) Cat = target: T2, TACE (human) Cat (Homo sapiens, UniProt P78536); assay: Inhibition assay with TACE catalytic domain, fluorescent substrate; format: biochemical; details: at 3.5 μM
T2 construct: TACE catalytic domain, Marcos Milla, University of Pennsylvania; donated by Marcos Milla, University of Pennsylvania
Description: as §1, §2, §3

[1] = target: T3, ADAM 8 (mouse) catalytic domain (Mus musculus, UniProt Q05910); assay: Inhibition assay with ADAM 8 catalytic domain; format: biochemical; details: at 1.7 μM
T3 construct: The ADAM 8 catalytic domain was expressed and purified from E. coli as described (22); made in house; host or cells: E. coli
T3 sequence (Q05910 196-395 limits assumed): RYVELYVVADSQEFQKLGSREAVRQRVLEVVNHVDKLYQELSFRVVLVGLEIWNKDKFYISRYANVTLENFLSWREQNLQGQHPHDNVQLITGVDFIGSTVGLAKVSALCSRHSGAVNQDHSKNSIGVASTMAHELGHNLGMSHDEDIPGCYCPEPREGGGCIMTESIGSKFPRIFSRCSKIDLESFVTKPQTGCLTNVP
Description: Inhibition assays with ADAM 8. The ADAM 8 catalytic domain was expressed and purified from E. coli as described (22). A substrate based on the L-selectin cleavage site, Dnp-INorIeuQKLDKSFSMIKE-NH2 (SEQ ID NO 20), was used to monitor enzyme activity with a fluorescamine assay. From a concentrated 50 mM solution in DMSO, the substrate was diluted 1:500 in 25 mM HEPES, pH 8.0, 0.0006% Brij-35. To 100 μl of diluted substrate was added either 5 μl of buffer (Tris, pH 8.0, 150 mM KCl) or 5 μl of ADAM10 prodomain (1-10 μM). Zero time points were taken by diluting 12.5 μl of the reaction mixture into 100 μl of fluorescamine buffer (50 mM HEPES, pH 8.0, 0.2 M NaCl, 0.01 M CaCl2, 0.01% Brij-35) in a 96-well black-coated plate. Before measuring fluorescence, 3 μl of a 1% solution of fluorescamine in DMSO was added to each well. The plate was allowed to incubate for 10 min in the dark before measuring fluorescence (excitation wavelength at 390 nm, emission wavelength at 485 nm). For assays with TACE and ADAM8 prodomains, a fluorescent substrate was used to monitor activity at concentrations of prodomains ranging from 1-4.7 μM.
Calculation of inhibition constants. The amount of activity was calculated by subtracting the ADAM 10 prodomain control from the ADAM 10 prodomain with enzyme. […]

TACE (human) Cat/Dis = target: T4, TACE (human) Cat/Dis (Homo sapiens, UniProt P78536); assay: Inhibition assay with TACE catalytic/disintegrin construct, fluorescent substrate; format: biochemical
T4 construct: containing the catalytic/disintegrin domains; purchased R & D Systems (Minneapolis, Minn., USA)
Description: as §1, §2, §3

MMP 1, 2, 3, 9, 13, 14 = assay: Inhibition assays with MMPs; format: biochemical; details: 3 μM prodomain
Description: Inhibition assays with MMPs. The fluorescent substrate Dabcyl-GPLGMRGC (Fluorescein)-NH2 (SEQ ID NO 18) (10 μM) in assay buffer containing 50 mM Tris, pH 7.5, 150 mM NaCl, 2 mM CaCl2, 5 μM ZnSO4, and 0.01% Brij-35 was used to monitor enzyme activities. MMPs 1, 2, 3, 9, 13, and 14 (0.1-20 nM) were incubated with substrate in the absence or presence of prodomain (3-30 μM). Fluorescence intensities were measured every 3-5 minutes at an emission wavelength of 530 nm (excitation 485 nm).
as §2, §3

CD23 shedding in B cells = assay: CD23 shedding in B cells, flow cytometry; format: cell-based; details: 1-5 μM, 12 hr
Description: The CD23 sheddase activity of ADAM 10 protein was further tested in a B-cell assay. B-cells were cultured for 12 hr in the presence or absence of IL-4 (100 ng/ml), wild type C-terminal His tagged ADAM 10 (23-213) (1-5 μM) or match diluent control (25 mM Tris-HCl pH 8, 100 mM NaCl, 10% glycerol, 0.1% β-mercaptoethanol). Cells were stained for expression of surface antigens following washing with 1% BSA/PBS. Cells were incubated for 30 minutes at 4° C. in the dark with fluorochrome-conjugated mAbs: APC-CD19 (CALTAG, Burlingame, Calif.), CD23-PE, mlgG1-PE (BD Biosciences) before washing to remove unbound mAb. Cells were resuspended in PBS and immediately analyzed with the use of the FACS Calibur (BD Biosciences). The software program FlowJo (Ashland, Oreg.) was used to analyze data generated by flow cytometry.

T4 sequence (P78536 215-671 limits assumed): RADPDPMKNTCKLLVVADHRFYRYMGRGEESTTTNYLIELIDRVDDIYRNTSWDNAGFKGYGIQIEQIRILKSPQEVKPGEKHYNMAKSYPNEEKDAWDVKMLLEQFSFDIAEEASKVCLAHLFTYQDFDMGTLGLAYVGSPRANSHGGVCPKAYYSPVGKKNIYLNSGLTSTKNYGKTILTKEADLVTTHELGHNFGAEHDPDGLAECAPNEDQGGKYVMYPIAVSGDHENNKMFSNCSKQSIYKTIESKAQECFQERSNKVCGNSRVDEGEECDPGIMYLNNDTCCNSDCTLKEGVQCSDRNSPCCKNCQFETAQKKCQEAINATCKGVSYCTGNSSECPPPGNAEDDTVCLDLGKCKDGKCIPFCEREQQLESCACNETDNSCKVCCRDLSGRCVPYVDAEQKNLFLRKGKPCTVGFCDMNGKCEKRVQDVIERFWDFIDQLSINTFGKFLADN
T2 sequence (P78536 223-474 limits assumed): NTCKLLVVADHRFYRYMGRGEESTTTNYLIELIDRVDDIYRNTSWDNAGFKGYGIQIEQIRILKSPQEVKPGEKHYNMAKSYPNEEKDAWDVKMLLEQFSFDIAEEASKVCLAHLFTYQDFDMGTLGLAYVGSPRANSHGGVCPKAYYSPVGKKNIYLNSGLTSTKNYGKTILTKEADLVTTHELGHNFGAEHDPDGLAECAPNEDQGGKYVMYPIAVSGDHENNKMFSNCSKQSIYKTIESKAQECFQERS

Q: How did the “binding constant, Ks for substrate” value (ADAM 10 (human) Cat/Dis; fit to pure competitive allosteric model) turn out when “Dabcyl-LAQAHomoPheRSC(Fluorescein)-NH2 ({Dabcyl′}-LAQA[hPhe]RSC(Fluorescein)-NH2) [fluorescent substrate for TACE and ADAM10 assays, reference compound]” was run?
A: 16 ± 4.6 µM

B1: Pro ADAM 17 (mouse): prodomain of mouse TACE (ADAM 17), residues 18-214, His-tagged, expressed in E. coli (protein)
chain: PRPPEEAGSGSHPRLEKLDSLLSDYDILSLANIQQHSIRKRDLQSATHLETLLTFSALKRHFKLYLTSSTERFSQNLRVVVVDGKEESEYSVKWQNFFSGHVVGEPDSRVLAHIGDDDVTVRINTDGAEYNVEPLWRFVNDTKDKRMLVYKSEDIKDFSRLQSPKVCGYLNADSEELLPKGLIDREPSEEFVRRVKR
modifications: left off: small tags and cut ends
notes: prodomain of mouse TACE (ADAM 17), residues 18-214, His-tagged, expressed in E. coli
Q: For B1, which “inhibition of ADAM 10 (human) Cat/Dis” value (ADAM 10 (human) Cat/Dis; at 3.5 μM) is on record?
A: 11% at 3.5 μM

Q: What about the “inhibition of TACE (human) Cat” value (TACE (human) Cat) of the same molecule?
A: 37%

Q: What about the “inhibition of ADAM 8 (mouse) Cat” value [1] of the same molecule?
A: 17% at 1.7 μM

Q: What about the “inhibition of TACE (human) Cat/Dis” value (TACE (human) Cat/Dis; at 3.5 μM) of the same molecule?
A: 0%

Q: What about the “inhibition of respective enzyme (TACE) by its prodomain” value (TACE (human) Cat/Dis; micromolar concentrations) of the same molecule?
A: did not inhibit

B2: wt ProADAM 10 23-213 (N-terminal His tag): wild type mouse ADAM 10 prodomain, amino acids 23-213, N-terminal His tag, expressed in E. coli (protein)
chain: NPLNKYIRHYEGLSYNVDSLHQKHQRAKRAVSHEDQFLLLDFHAHGRQFNLRMKRDTSLFSDEFKVETSNKVPDYDTSHIYTGHIYGEEGSFSHGSVIDGRFEGFIKTRGGTFYIEPAERYIKDRILPFHSVIYHEDDINYPHKYGPQGGCADHSVFERMRKYQMTGVEEGARAHPEKHAASSGPELLRKK
modifications: left off: small tags and cut ends
notes: wild type mouse ADAM 10 prodomain, amino acids 23-213, N-terminal His tag, expressed in E. coli
Q: Which “inhibition of matrix metalloproteinases 1, 2, 3, 9, 13 and 14” value (MMP 1, 2, 3, 9, 13, 14) does the source give for B2 here?
A: not inhibited

B3: wt ProADAM 10 23-213 (C-terminal His tag): wild type mouse ADAM 10 prodomain, amino acids 23-213, C-terminal His tag, expressed in E. coli (protein)
chain: NPLNKYIRHYEGLSYNVDSLHQKHQRAKRAVSHEDQFLLLDFHAHGRQFNLRMKRDTSLFSDEFKVETSNKVPDYDTSHIYTGHIYGEEGSFSHGSVIDGRFEGFIKTRGGTFYIEPAERYIKDRILPFHSVIYHEDDINYPHKYGPQGGCADHSVFERMRKYQMTGVEEGARAHPEKHAASSGPELLRKKHHHHHH
Q: Which results are given for B3?
A: inhibition of shedding in B cells stimulated with IL-4 (CD23 shedding in B cells; IL-4 100 ng/ml, FIG. 2D): able to inhibit shedding; inhibition of shedding in B cells (CD23 shedding in B cells; without IL-4, FIG. 2C): able to inhibit shedding; mode of inhibition of ADAM 10 protein (ADAM 10 (human) Cat/Dis; initial velocities fit to allosteric models): pure competitive; inhibition of matrix metalloproteinases 1, 2, 3, 9, 13 and 14 (MMP 1, 2, 3, 9, 13, 14): not inhibited
